# From publication PMC12465037, “Defective targeting of PNPLA1 to lipid droplets causes ichthyosis in ABHD5-syndromic epidermal differentiation disorder” (Journal of Lipid Research, 2025)
# B1: Xpress-tagged human ABHD5 p.E260K (natural protein, UniProt Q8WTS1 1-349, looked up)
# chain: MAAEEEEVDSADTGERSGWLTGWLPTWCPTSISHLKEAEEKMLKCVPCTYKKEPVRISNGNKIWTLKFSHNISNKTPLVLLHGFGGGLGLWALNFGDLCTNRPVYAFDLLGFGRSSRPRFDSDAEEVENQFVESIEEWRCALGLDKMILLGHNLGGFLAAAYSLKYPSRVNHLILVEPWGFPERPDLADQDRPIPVWIRALGAALTPFNPLAGLRIAGPFGLSLVQRLRPDFKRKYSSMFEDDTVTEYIYHCNVQTPSGKTAFKNMTIPYGWAKRPMLQRIGKMHPDIPVSVIFGARSCIDGNSGTSIQSLRPHSYVKTIAILGAGHYVYADQPEEFNQKVKEICDTVD
# notes: human ABHD5, full-length open reading frame of NM_016006.6 with the patient mutation p.E260K; Disease-associated (ABHD5-sEDD) missense variant made by site-directed mutagenesis; source: HEK293T, transfected (pcDNA4/HisMaxC), in lysate
# B2: Xpress-tagged human ABHD5 p.R297N (natural protein, UniProt Q8WTS1 1-349, looked up)
# chain: MAAEEEEVDSADTGERSGWLTGWLPTWCPTSISHLKEAEEKMLKCVPCTYKKEPVRISNGNKIWTLKFSHNISNKTPLVLLHGFGGGLGLWALNFGDLCTNRPVYAFDLLGFGRSSRPRFDSDAEEVENQFVESIEEWRCALGLDKMILLGHNLGGFLAAAYSLKYPSRVNHLILVEPWGFPERPDLADQDRPIPVWIRALGAALTPFNPLAGLRIAGPFGLSLVQRLRPDFKRKYSSMFEDDTVTEYIYHCNVQTPSGETAFKNMTIPYGWAKRPMLQRIGKMHPDIPVSVIFGANSCIDGNSGTSIQSLRPHSYVKTIAILGAGHYVYADQPEEFNQKVKEICDTVD
# notes: human ABHD5, full-length open reading frame of NM_016006.6 with the patient mutation p.R297N; Disease-associated (ABHD5-sEDD) missense variant made by site-directed mutagenesis; source: HEK293T, transfected (pcDNA4/HisMaxC), in lysate
# B3: Xpress-tagged human ABHD5 p.H82R (natural protein, UniProt Q8WTS1 1-349, looked up)
# chain: MAAEEEEVDSADTGERSGWLTGWLPTWCPTSISHLKEAEEKMLKCVPCTYKKEPVRISNGNKIWTLKFSHNISNKTPLVLLRGFGGGLGLWALNFGDLCTNRPVYAFDLLGFGRSSRPRFDSDAEEVENQFVESIEEWRCALGLDKMILLGHNLGGFLAAAYSLKYPSRVNHLILVEPWGFPERPDLADQDRPIPVWIRALGAALTPFNPLAGLRIAGPFGLSLVQRLRPDFKRKYSSMFEDDTVTEYIYHCNVQTPSGETAFKNMTIPYGWAKRPMLQRIGKMHPDIPVSVIFGARSCIDGNSGTSIQSLRPHSYVKTIAILGAGHYVYADQPEEFNQKVKEICDTVD
# notes: human ABHD5, full-length open reading frame of NM_016006.6 with the patient mutation p.H82R; Disease-associated (ABHD5-sEDD) missense variant made by site-directed mutagenesis; source: HEK293T, transfected (pcDNA4/HisMaxC), in lysate
# B4: Xpress-tagged human ABHD5 p.Q130P (natural protein, UniProt Q8WTS1 1-349, looked up)
# chain: MAAEEEEVDSADTGERSGWLTGWLPTWCPTSISHLKEAEEKMLKCVPCTYKKEPVRISNGNKIWTLKFSHNISNKTPLVLLHGFGGGLGLWALNFGDLCTNRPVYAFDLLGFGRSSRPRFDSDAEEVENPFVESIEEWRCALGLDKMILLGHNLGGFLAAAYSLKYPSRVNHLILVEPWGFPERPDLADQDRPIPVWIRALGAALTPFNPLAGLRIAGPFGLSLVQRLRPDFKRKYSSMFEDDTVTEYIYHCNVQTPSGETAFKNMTIPYGWAKRPMLQRIGKMHPDIPVSVIFGARSCIDGNSGTSIQSLRPHSYVKTIAILGAGHYVYADQPEEFNQKVKEICDTVD
# notes: human ABHD5, full-length open reading frame of NM_016006.6 with the patient mutation p.Q130P; Disease-associated (ABHD5-sEDD) missense variant made by site-directed mutagenesis; source: HEK293T, transfected (pcDNA4/HisMaxC), in lysate
# B5: Xpress-tagged human ABHD5 p.G271R (natural protein, UniProt Q8WTS1 1-349, looked up)
# chain: MAAEEEEVDSADTGERSGWLTGWLPTWCPTSISHLKEAEEKMLKCVPCTYKKEPVRISNGNKIWTLKFSHNISNKTPLVLLHGFGGGLGLWALNFGDLCTNRPVYAFDLLGFGRSSRPRFDSDAEEVENQFVESIEEWRCALGLDKMILLGHNLGGFLAAAYSLKYPSRVNHLILVEPWGFPERPDLADQDRPIPVWIRALGAALTPFNPLAGLRIAGPFGLSLVQRLRPDFKRKYSSMFEDDTVTEYIYHCNVQTPSGETAFKNMTIPYRWAKRPMLQRIGKMHPDIPVSVIFGARSCIDGNSGTSIQSLRPHSYVKTIAILGAGHYVYADQPEEFNQKVKEICDTVD
# notes: human ABHD5, full-length open reading frame of NM_016006.6 with the patient mutation p.G271R; Disease-associated (ABHD5-sEDD) missense variant made by site-directed mutagenesis; source: HEK293T, transfected (pcDNA4/HisMaxC), in lysate
# B6: Xpress-tagged human ABHD5 p.S115G (natural protein, UniProt Q8WTS1 1-349, looked up)
# chain: MAAEEEEVDSADTGERSGWLTGWLPTWCPTSISHLKEAEEKMLKCVPCTYKKEPVRISNGNKIWTLKFSHNISNKTPLVLLHGFGGGLGLWALNFGDLCTNRPVYAFDLLGFGRGSRPRFDSDAEEVENQFVESIEEWRCALGLDKMILLGHNLGGFLAAAYSLKYPSRVNHLILVEPWGFPERPDLADQDRPIPVWIRALGAALTPFNPLAGLRIAGPFGLSLVQRLRPDFKRKYSSMFEDDTVTEYIYHCNVQTPSGETAFKNMTIPYGWAKRPMLQRIGKMHPDIPVSVIFGARSCIDGNSGTSIQSLRPHSYVKTIAILGAGHYVYADQPEEFNQKVKEICDTVD
# notes: human ABHD5, full-length open reading frame of NM_016006.6 with the patient mutation p.S115G; Disease-associated (ABHD5-sEDD) missense variant made by site-directed mutagenesis; source: HEK293T, transfected (pcDNA4/HisMaxC), in lysate
# Biological target: T1, 3xFLAG-tagged full-length human PNPLA1, partially purified (pcDNA4/HisMaxC-mut-3xFLAG-hsPNPLA1) (human, UniProt Q8N8W4-1 1-532)
# T1 construct: human PNPLA1, full-length open reading frame of NM_001145717.1; also called 3xFLAG-PNPLA1; source: Expi293F, transfected, partially purified (IMAC, HisTrap HP)
# T1 sequence (looked up): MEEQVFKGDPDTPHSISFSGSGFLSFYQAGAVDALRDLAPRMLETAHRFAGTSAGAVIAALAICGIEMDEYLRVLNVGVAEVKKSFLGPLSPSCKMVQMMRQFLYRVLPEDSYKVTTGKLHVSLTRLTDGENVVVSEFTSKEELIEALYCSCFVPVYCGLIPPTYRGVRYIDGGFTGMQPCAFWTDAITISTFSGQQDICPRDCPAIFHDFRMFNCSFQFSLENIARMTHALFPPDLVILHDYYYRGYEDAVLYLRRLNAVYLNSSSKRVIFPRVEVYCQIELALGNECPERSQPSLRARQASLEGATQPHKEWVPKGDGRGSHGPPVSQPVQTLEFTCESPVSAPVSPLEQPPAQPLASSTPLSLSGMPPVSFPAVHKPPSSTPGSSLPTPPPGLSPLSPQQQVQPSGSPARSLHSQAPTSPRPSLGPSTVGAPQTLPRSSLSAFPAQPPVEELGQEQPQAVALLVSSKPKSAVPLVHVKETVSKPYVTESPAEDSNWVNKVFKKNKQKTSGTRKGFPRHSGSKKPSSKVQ
# Assay: ELISA; solid-phase interaction assay: 1.8 μg/well of purified 3xFLAG-PNPLA1, PLIN2 or PLIN3 coated on MaxiSorp plates (50 mM Tris-HCl pH 8.0, 200 mM NaCl); 40 μg HEK293T lysate with Xpress-tagged ABHD5 variants in TBS with 2% BSA and 0.05% Tween 20, overnight at 4°C; anti-Xpress and HRP secondary antibody, TMB, absorbance at 620 nm, background subtracted and normalised to expression
# Details: one partner purified
row,Binder,change of PNPLA1 binding (normalised absorbance) against wild-type ABHD5
1,B1,25%
2,B2,-87%
3,B3,44%
4,B4,16%
5,B5,-59%
6,B6,-17%
